# Experimental data reported in the DeepSol protein solubility set.
# Experiment: soluble on expression in E. coli; label from the status in PepcDB or PDB records
row,Sequence,soluble on expression in E. coli
1,MTAVRRIRAAALPDLPDASWSNALLVGEELVMSGMTAHPATRQAAERGAALDAHAQALVVLGKVKALLEAAGGHVGNLYKLNVYVTRIADKDAIGRARQEFFAGQGTFPASTLVEVSGLVFPELLVEIDAWARLDIDLANCDEA,soluble
2,MSNNNSGSSNQLLVRGAEQALDQMKYEIAQEFGVQLGADATARANGSVGGEITKRLVSLAEQQLGGGVTR,soluble
3,MNIVLMGLPGAGKGTQAERIVEKYGIPHISTGDMFRAAMKEETPLGLEAKSYIDKGELVPDEVTIGIVRERLSKSDCERGFLLDGFPRTVAQAEALEEILEEMGRPIDYVINIQVDKEELMERLTGRRICSVCGTTYHLVFNPPKTPGICDKDGGELYQRADDNEETVTKRLEVNMKQTAPLLAFYDSKEVLVNVNGQQDIQDVFADVKVILGGLKQ,soluble
4,MGHHHHHHSHKPVPWVEKYRPKCVDEVAFQEEVVAVLKKSLEGADLPNLLFYGPPGTGKTSTILAAARELFGPELFRLRVLELNASDERGIQVVREKVKNFAQLTVSGSRSDGKPCPPFKIVILDEADSMTSAAQAALRRTMEKESKTTRFCLICNYVSRIIEPLTSRCSKFRFKPLSDKIQQQRLLDIAKKENVKISDEGIAYLVKVSEGDLRKAITFLQSATRLTGGKEITEKVITDIAGVIPAEKIDGVFAACQSGSFDKLEAVVKDLIDEGHAATQLVNQLHDVVVENNLSDKQKSIITEKLAEVDKCLADGADEHLQLISLCATVMQQLSQNC,not soluble
5,LIGDKNTTFVEKLNSLAADHQLPQIGFSTSSEPEWQFVKDLTEVDPEHVVKSYNRQAKYHLNKNKQFCIKLRKIGRDELPAFKRITQQTADRLHYHDKSLDFYETLFDTYGKKAKFIFAEINFKEYSESIEKDLNDIQKKLTEIAGADYHNISDLSDFSASAKRHLSEGIKTETALQKRLQEAKKMHQEAKHDIVLVSVALFVIENQEVVYLYSGSDEKYEHLFAPYEIQDTMITEAVKERIPLYNFYGVSGKFDGSDGVLGFKTHFNGYTREMVGSFDFPVQKTKYYFYRLFKKILHRQ,not soluble
6,MGSSHHHHHHSSGRENLYFQGHMNRTLYTLLFHLGLPLVALRLWWRARQAPAYAKRIGERFSLSLPEVPPGGIWVHAVSVGESIAAAPMVRALLERHPQLPVTVTCMTPTGSERIRALFGEQVRHCYLPYDLPWAAARFLDRVRPRLAVIMETELWPNHIHACAVRGIPVALANARLSERSARGYARFAGLTRPMLAELSWIAVQTEAEAERFRRLGARPECVSVTGSIKFDLRIDPQLPLAAAALREEWDATARPLWIAASTHAGEDEIVLAAHRRLLETRPDALLILVPRHPERFAGVHELCRREGFATVRRSGGEPVARATQVLLGDTMGELLFLYALADIAFVGGSLVPNGGHNLLEPAALGKPVFAGPHLFNFLDIAAQLRDAGALLEVTDAGELCDGLARLWAQPEVATAMATAGEKVLRNNQGALERLLAGLARLLGRGG,soluble
7,MMKKRASHHLVICTLIDTLRFRLSSRKAISMNAFNKLVKHSKKISNFNHLSSIVGWDQAAVMPSGGAEARSQAMAELSVHIHGLMTQPQLADWFAEAESETLNIEQQATLREMKRQWQQATVLPEALVEAQSLAGSKCEHAWRSQRKNNDWTGFEKNWAEVVKLSQEEAQIRAEATGKTPYDAMLELYEPGTTTEQLNRVFSDVKTWLPSLIDVVIEKQSSESFIAPKGHYPAESQKALGLDVMKLLQFDFNHGRLDESVHPFCGGVPSDVRITTRYNESEFVQSLMGIVHETGHARYEQGLPKHLAGTPAGEARSMGIHESQSLFFEMQVGRSPAFIAHLAELAGKHFSAMNDPVFRVENIQKLYTRVQKDFIRVDADELTYPAHVILRFEIERDLMNGKIKHTDVPELWDQKMQAYLGLSTKGNDQNGCMQDIHWTDGSFGYFPSYTLGAMYAAQFMAAMKKTVDVDGAIRRGDLSPIFTWLSENIWSKGSLFSTDELVKQATGETLNPEHFKAHLSQRYLK,not soluble
8,MWRGKYSGGYQNRFVSAKSSGTSSLSDGKSMNNVPPPAALTVGNAPVPPPNRNILLSNRKEQEMKKEQEYANLMAYGSTSEKQSRRKRIYDDEYLEGGSDDEKPASSSSKLAADDDDEEDELDAFMAGIEKQASSDKKVSEQKEKDRKEGKDTEDPSKKGLGRADIDEEDMQESLFKFMEEYKEKHENDDEQLEYDEDGNIIWSWKKVIDPLPDIDHSQIQYQKFNKNFYEEHEDIKRLHYMDVIRLQNTMNLRVGGLKPPRPVCSFAHFSFDKLLMEAIRKSEYEQPTPIQAMAIPSALSGRDVLGIAKTGSGKTAAYLWPAIVHIMDQPDLKAGEGPVAVIVVPTRELAIQVFQEAKKFCKVYNINPICAYGGGSKWEQSNELQNEGAEMVVCTPGRIIDLVKMGATNFLRTTFLVFDEADRMFDMGFEAQVKSISDHVRPDRQCLMFSATFKQKVERLARDALVDPVRIVQGEVGEANADIEQKVFVMQNQDVKLHWLIRNLVEFASLGKVLIFVTKKLDSEDVAKKLKMKDFDIVLLHGDMLQAERNENLLKFRKKSQILVATDVAARGLDISEIRTVINFDMARDIDTHVHRIGRTGRAGHKGTAYTLVTEKDIEMVGHLVKNLESVSQEVPKPLMDLAMKSSWFRGQRAGNGGPSTGTQTRGRMGLGYTPKVRQVGGGATGAQFDPLKEQKSCRGGGNQTVDGMIRNAQSFATSSSSSSSSSSGPASGANRAQMLKSAFQKSFQTTFQRPTNESSNLPQQVASDPRPEWKKKVDELNAKIAQQQASSASGGSSSSSSSSKRSRWE,not soluble
9,MAHHHHHHMALYIIGLGLGDERDVSVKGKELIEMSDVVYLESYTSVLFVSKNTLEEFYKKNIKEVDRNLAEENCEEILKEAINKKVSFLVVGDPLCATTHHDIILRAKKKNINVQVIHNASVMSAIGESGMQLYNFGQTVSIPYFEGNYKPTSFYDKIKVNLDNNFHTLCLLDIKVKERTIENMMKNKNIYEPSRFMTVNEAIEQLLYCEEVLKKNVITDNTRGIAIVRIGSDSQQIVSGSLLALKSVSYNDPLHSLIICAPTLHDVEREYFEMYQHRC,soluble
10,MMSILRSQCQISLDVTLSVPNVSEGIVRLLDPQTNTEIANYPIYKILFCVRGHDGTPESDCFAFTESHYNAELFRIHVFRCEIQEAVSRILYSFATAFRRSAKQTPLSATAAPQTPDSDIFTFSVSLEIKEDDGKGYFSAVPKDKDRQCFKLRQGIDKKIVIYVQQTTNKELAIERCFGLLLSPGKDVRIVTALIRFGSMGKVQMESRMLFGELESKIPTFSSCNEEPPKDKVLFMTTAVDLVITEVQEPVRFLLETKVRVCSPNERLFWPFSKRSTTENFFLKLKQIKQRERKNNTDTLYEVVCLESLEHHHHHHLEHHHHHHLEHHHHHHLEHHHHHHLEHHHHHHLEHHHHHHLEHHHHHH,not soluble
11,GASIVGSWVEPVPGLEGQVQGIKMEEGGVASSVNMATLVYESWKQEGTKLILTGKSIGNGQTIEFVDTMDIKRLTADSLVLDNQGMEIRYAKQK,soluble
12,MEFTLTREKQMIKEMVRDFAEKEIAPKAVYYDKTAEFPYETFQKMGELGLLGIPFPEEYGGSGGDTVSYALAVEEIGRACGGTGLSYAATISLGASPIYYFGTEEQKQKYLVPMASGKTLGAFGLTEPNAGSDAGGTQTKAILDGDEYVISGEKCWITNAEYANTIIVTAVNGIEENGRKRISAFIVPTTSEGLTISSPYDKMGVRASNTCEIVLDGVRVPKENILGDVNKGFKQFLYTLDGGRISIAVLAVGIAQSAFERALQYAKERQQFGKAISNFQAIQFKLADMATEVELARNLVHKAAWLKDNDKPFGKEAAMAKLFASEAASRIANQAVQIHGGYGYMREYEVERHIRDAKLLEIGEGTSEIQRLVIARHLGCR,not soluble
13,MGSDKIHHHHHHMRWFSLATAFLWGYYGFDNFGDELMFKACVNLLRELGFGTIYTPLPKGKKSMGVTSVDRYSIKLLSLLKKSQVSIAGGGGLFQDVTSLRSLLYYYSISKASLLMDKPLIFFGNSVGPLRRRLSKKLVWDVFKDKRTVFIARDPASYRYVKMVGGNAVLGTDPAIIHLMESDMEKKTEKKAVFFLKSPMDVSYILKSLRDQGINDFVISTAFPGDHSYLPPLRNGENLLEEIVSSSIVITERFHPALVAAYFEIPFIIVDCQKARRFFARYTKEDHFFSKRDPLEISLKVPVVLKKELKLKEKMKNDAIEMKEMLKGVLKGW,not soluble
